Values of other authors in PMC10991417.

Target: Vasa CTD (Drosophila melanogaster) (UniProt P09052)
UniProt P09052, sequence (P09052 463-623): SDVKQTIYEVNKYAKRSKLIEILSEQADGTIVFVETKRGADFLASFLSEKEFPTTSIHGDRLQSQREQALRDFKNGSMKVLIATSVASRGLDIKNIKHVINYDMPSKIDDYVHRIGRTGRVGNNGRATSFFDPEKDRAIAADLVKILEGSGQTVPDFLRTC

Kd: 10 µM
Substance: Oskar eLOTUS (from UniProt P25158)
